{"source": "patent US20190276499A1", "about": "“Protein VII Fragments and Methods of Use Thereof for the Treatment of Inflammatory Disorders” (priority 2016, published 2019)", "molecules": {"B1": {"name": "protein VII: mature protein VII of human adenovirus type 5 (SEQ ID NO:1), expressed in cells, mostly with C-terminal HA tag (protein)", "chain": "AKKRSDQHPVRVRGHYRAPWGAHKRGRTGRTTVDDAIDAVVEEARNYTPTPPPVSTVDAAIQTVVRGARRYAKMKRRRRRVARRHRRRPGTAAQRAAAALLNRARRTGRRAAMRAARRLAAGIVTVPPRSRRRAAAAAAAAISAMTQGRRGNVYWVRDSVSGLRVPVRTRPPRN", "modifications": "C-terminal HA tag; Human adenovirus 5"}}, "key": {"LPS induced lung injury": {"tested_on": "LPS induced lung injury", "test": "Murine model of LPS induced lung injury, BAL fluid analysis", "format": "in vivo, mouse", "details": "24 hours after LPS exposure, versus mice expressing GFP", "description": "All mice were housed in SPF conditions. All studies in mice were carried out in accordance with the recommendations in the Guide for the Care and Use of Laboratory Animals of the National Institutes of Health. C57BL/6J male mice aged 8-10 weeks were used for experiments. Mice were sedated with ketamine and xylazine. Once sedated, mice underwent orotrachial intubation, as described (Das et al. (2013) J. Vis. Exp., (73):e50318), with a 20G angiocatheter from BD (Franklin Lakes, N.J.). Mice subsequently received 5e10 GC of recombinant adenovirus expressing VII-GFP or GFP purified as described above. Four days after infection, mice were exposed to aerosolized LPS, 3 mg/mL for 30 minutes as described (Jeyaseelan et al. (2004) Infect. Immun., 72:7247-7256). One day after LPS exposure, BAL, and lung tissue were harvested as detailed (Nick et al. (2000) J. Immunol., 164:2151-2159) and examined for HMGB1 content (ELISA, Chondrex 6010) and neutrophil count (hematoxylin and eosin stain kit EMD 65044/93). Immunostaining was carried out using standard methods. A minimum of four biological replicates were used for each condition studied. Mice were assigned a random number and color at the start of the experiment and were randomized. Technicians carrying out the experiments were blinded to the identity of the samples. Tissue samples were assigned a random study number such that the technician performing the analysis was blinded. Unblinding for the purpose of data analysis occurred only after all data had been collected."}, "[1]": {"tested_on": "HMGB1 domains (A box, B box, acidic tail)", "test": "Immunofluorescence of HMGB1-GFP domain constructs upon protein VII-HA expression", "format": "cell-based", "details": "A549 cells, 2 days after transfection", "description": "Cells were grown on glass coverslips in 24-well plates and either infected or induced with doxycycline (0.2 μg/mL). Cells were harvested for immunofluorescence at the indicated time points, washed in phosphate-buffered saline (PBS), fixed in 4% paraformaldehyde for 15 minutes and post-fixed with 100% ice-cold methanol for 5 minutes. Coverslips were then blocked and stained as described (Lilley et al. (2011) PLoS Pathog., 7:e1002084) and mounted using ProLong Gold Antifade Reagent (Life Technologies). Immunofluorescence was visualized using a Zeiss LSM Confocal microscope and ZEN 2011 software. Images were processed using ImageJ and assembled with Adobe CS6. All scale bars show in the Figures are 10 μm unless otherwise stated.\nFIG. 8A provides a schematic of the different GFP constructs expressing distinct HMGB1 domains. […] Immunofluorescence of the HMGB1-GFP constructs 2 days after transfection of A549s cells under control conditions or upon expression of Ad5 protein VII-HA is shown in FIG. 8B. […] Only full-length HMGB1 and the HMGB1 A box are relocalized upon expression of protein VII. […] Next we tested the immobilization of this construct in chromatin upon protein VII expression."}, "cellular chromatin": {"tested_on": "cellular chromatin", "test": "Chromatin appearance in inducible cell lines (immunofluorescence, DAPI)", "format": "cell-based", "details": "inducible expression", "description": "Primary small airway epithelial cells (SAECs), U2OS, HeLa, 293, THP-1 and A549 cells were obtained from the American Tissue Culture Collection (ATCC) and grown according to the provider's instructions. Acceptor cells for generation of inducible cell lines were used as reported (Khandelia et al. (2011) Proc. Natl. Acad. Sci., 108:12799-12804). Protein VII, preVII and V were cloned from genomic DNA isolated from HeLa cells infected with adenovirus type 5 and inserted into the inducible plasmid cassette with a C-terminal HA tag using restriction enzymes BsrGI and AgeI. Positive clones were selected in DH5a cells, sequenced, and transfected into A549, U2OS or HeLa acceptor cells along with plasmid expressing the Cre recombinase. Recombined clones were selected by puromycin resistance (1 μg/mL) and induced with doxycycline (0.2 μg/mL) to express the desired protein. Protein expression was verified by immunofluorescence and western blot. All figures shown are after 4 days of induction unless otherwise stated. Protein VII and preVII were also verified by HPLC purification and mass spectrometry analysis. Point mutations were generated by gene synthesis from Genewiz.\nCells were grown on glass coverslips in 24-well plates and either infected or induced with doxycycline (0.2 μg/mL). […]"}, "HMGB1": {"molecular_target": "T1, HMGB1 (Homo sapiens, UniProt P09429)", "T1 sequence (P09429 1-215)": "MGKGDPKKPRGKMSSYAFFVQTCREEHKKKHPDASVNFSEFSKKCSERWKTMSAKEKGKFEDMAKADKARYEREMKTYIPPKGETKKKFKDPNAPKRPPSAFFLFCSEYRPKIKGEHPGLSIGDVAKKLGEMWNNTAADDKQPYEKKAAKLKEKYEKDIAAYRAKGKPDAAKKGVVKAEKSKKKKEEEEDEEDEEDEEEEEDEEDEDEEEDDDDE", "test": "GFP immunoprecipitation from A549 cells transfected with protein VII-GFP constructs", "format": "cell-based", "design": "endogenous in cells; host or cells: A549", "details": "A549 cells transfected 24 hours", "description": "We further narrowed down this binding region through expression of protein VII peptides tagged with GFP. […] Cellular fractionation of A549 cells transfected for 24 hours with GFP and the different protein VII constructs is shown in FIG. 7C."}}, "data": [{"molecule": "B1", "values": [{"measurement": "HMGB1 in BAL fluid", "setting": "LPS induced lung injury", "value": "significantly less HMGB1"}, {"measurement": "Neutrophils in BAL fluid", "setting": "LPS induced lung injury", "value": "fewer neutrophils"}, {"measurement": "Relocalization of HMGB1 A box", "setting": "[1]", "value": "relocalizes"}, {"measurement": "Effect on chromatin appearance", "setting": "cellular chromatin", "value": "altered nuclear DNA into a punctate appearance"}, {"measurement": "Pull-down of HMGB1 by GFP immunoprecipitation", "setting": "HMGB1", "value": "able to pull-down HMGB1"}]}]}
